The stoichiometry N is the number of molecules, sites or subunits per partner or assembly.

The record followed here is publication PMC10889886.

For test [1], the target named is soluble SARS-CoV-2 Spike (S) (SARS-CoV-2). Nature of the test: […], PBS running buffer; […].
In test [2] the target is HCoV-229E Spike antigen (HCoV-229E) (UniProt P15423). The test is described as follows: […], PBS running buffer; […].

Substance “soluble SARS-CoV-2 Spike (S) (domain or fragment)” came in with a stoichiometry N in test [1] of 3. With “HCoV-229E Spike antigen (from UniProt P15423 16-1173) (natural protein)”, in test [2], the stoichiometry N is 3.
